In PMC10072977 (Biochemical and Biophysical Research Communications, 2023):

Target: biotinylated SARS-CoV-2 WT RBD (Kactus Biosystems, CoV-VM4BDB) (SARS-CoV-2, UniProt P0DTC2, biotin)
Test: ELISA

B1: rabbit monoclonal antibody (RmAb) 9H1 (antibody, V domains shown)
VH: QSVEESGGRLVTPGTPLTLTCTVSGFSLSRYAMSWVRQAPGKGLEWIGIIVDSGHTAYASWAKGRFTISRTSTTVDLKMTSLTTEDTATYFCARETGGGAFYVFEFWGPGTVVTVSS
VL: QVLTQTPSSVSAAVGGTVTINCQASEDIYDNLVWYQQKPGQPPKLLIYDASTLAFGVSSRFRGSGSGTHFTLTMRDVQCDDAATYYCQGEFSCSSGDCTAFGGGTEVVVK
Q: Does B1 bind?
A: binds
